Experimental data taken from PMC4791852 (mBio, 2016).

Target: T1, Ebola virus GPCL trimer (thermolysin-cleaved, purified GP ectodomain) (Ebola virus (Zaire ebolavirus); GP1 …)
T1 chain 1: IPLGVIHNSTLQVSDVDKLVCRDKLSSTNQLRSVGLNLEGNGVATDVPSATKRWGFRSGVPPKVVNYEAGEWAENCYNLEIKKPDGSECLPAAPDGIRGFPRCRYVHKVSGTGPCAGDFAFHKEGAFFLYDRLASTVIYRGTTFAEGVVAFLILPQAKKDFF
T1 chain 2: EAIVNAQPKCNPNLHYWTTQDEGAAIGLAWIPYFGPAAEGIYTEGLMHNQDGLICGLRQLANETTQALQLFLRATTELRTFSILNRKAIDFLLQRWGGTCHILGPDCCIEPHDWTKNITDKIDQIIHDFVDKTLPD
Assay: crystal structure

B1: KZ52 Fab (Fab, V domains shown)
VH: EVQLLESGGGLVKPGGSLRLSCAASGFTLINYRMNWVRQAPGKGLEWVSSISSSSSYIHYADSVKGRFTISRDNAENSLYLQMNSLRAEDTAVYYCVREGPRATGYSMADVFDIWGQGTMVTVSS
VL: not shown
  binding result: binds
